Source: PMC9977887, “Crocodile defensin (CpoBD13) antifungal activity via pH-dependent phospholipid targeting and membrane disruption” (Nature Communications, 2023)
Where two headings read alike, the source gives them in different places. Where no end group is shown, it is not given here.

Legend:
[1] = tested on: U937 cells; assay: Propidium iodide uptake assay in serum-free medium; format: cell-based, human
Experimental: For propidium iodide uptake assays in serum-free medium, U937 cells (after centrifugation at 300 g, 5 min) were washed once in serum-free RPMI-1640, pelleted again (as previous centrifugation) and resuspended in serum-free media. […] PI (diluted in ice-cold PBS) was added to a final concentration of 1 µg/mL before analysis by flow cytometry using a BD FACSCanto II with FACSDiva 8.0.1 (BD Biosciences).

[2] = tested on: HUVEC cells
Description: Human epithelial cervical cancer (HeLa, ATCC, CCL-2), prostate cancer (PC3, ATCC, CRL-1435) and histiocytic lymphoma (U937, ATCC, CRL-1593.2) cells were obtained from the American Type Culture Collection (Gaithersburg, Maryland) and cultured in RPMI-1640 medium (Thermo Fisher Scientific, Waltham, MA) supplemented with 5–10% (v/v) foetal bovine serum (FBS), 100 U/mL penicillin and 100 U/mL streptomycin (Invitrogen, Carlsbad, CA). Adult human dermal fibroblasts (AHDF, Lonza, CC-2511) cells were obtained from Lonza (Basel, Switzerland) and cultured in Dulbecco’s Modified Eagle Medium (DMEM) (Thermo Fisher Scientific) supplemented with 10% (v/v) FBS, 100 U/mL penicillin and 100 U/mL streptomycin. Human umbilical vein epithelial (HUVEC, Lonza, CC-2519) cells were obtained from Lonza and cultured in EBM-2 medium supplemented with EGM-2 SingleQuots (Lonza). All cell lines were maintained at 37 °C in a humidified incubator with 5% CO2.
Cell viability assays were performed using MTT/MTS as previously described[8].

[3] = tested on: C. albicans ATCC 10231; assay: Fungal growth inhibition assay; format: cell-based, Candida albicans
Experimental: (§1) For fungal growth assays, overnight cultures of C. albicans ATCC 10231 cells (yeast peptone dextrose broth, 30°C, shaking at 160 rpm) were pelleted (2000 g, 5 min), washed once in 0.5× potato dextrose broth (BD Biosciences, Franklin Lakes, NJ) and finally resuspended in the same media. Cells were seeded onto a 96-well plate (400 cells, 50 µL) and treated with an equal volume of varying concentrations of defensin in 0.5× potato dextrose broth. After incubating the samples (24 h, 30 °C), the plates were shaken to distribute the cells and growth was determined by performing a 9-well scan (600 nm) using a Spectramax M5e microplate reader (Molecular Devices, San Jose, CA). For assays testing defensin salt tolerance, C. albicans cells were instead resuspended in 1x potato dextrose broth and treated with an equal volume of CpoBD13 + NaCl solution at their intended concentrations. Propidium iodide (PI) uptake assays were performed by preparing the cells as per the standard growth inhibition assay however they were instead seeded onto a U-bottom 96-well plate (50,000 cells, 25 µL). […] For PI uptake experiments performed at a specific pH, the same method was followed with the exception that cells were resuspended in 1× potato dextrose broth while defensin titrations were diluted in 40 mM MES buffer at the intended pH. An example PI uptake gating strategy is presented in Supplementary Fig. 1d.

[4] = tested on: C. albicans ATCC 10231; assay: Propidium iodide uptake assay in pH-buffered conditions (MES buffer); format: cell-based, Candida albicans; settings: 30 min
Experimental: as §1

CpoBD13: saltwater crocodile β-defensin 13, histidine-rich, three disulphide bonds, recombinantly expressed in Pichia pastoris (NGSYYSTLQCRNNHGHCRRLCFHGEQWIGNCNGRHQHCCK; disulfide (positions not given here); also: three disulphide bonds, pairings not given here)
PI positivity (%) ([1]; 1.5625 μM CpoBD13, replicate 1): 3.27% | PI positivity (%) ([1]; 1.5625 μM CpoBD13, replicate 2): 9.7% | PI positivity (%) ([1]; 1.5625 μM CpoBD13, replicate 3): 3.5% | PI positivity (%) ([1]; 3.125 μM CpoBD13, replicate 1): 2.47% | PI positivity (%) ([1]; 3.125 μM CpoBD13, replicate 2): 6.8% | PI positivity (%) ([1]; 3.125 μM CpoBD13, replicate 3): 4.1% | PI positivity (%) ([1]; 6.25 μM CpoBD13, replicate 1): 1.67% | PI positivity (%) ([1]; 6.25 μM CpoBD13, replicate 2): 10.8% | PI positivity (%) ([1]; 6.25 μM CpoBD13, replicate 3): 1% | PI positivity (%) ([1]; 12.5 μM CpoBD13, replicate 1): 3.27% | PI positivity (%) ([1]; 12.5 μM CpoBD13, replicate 2): 9.1% | PI positivity (%) ([1]; 12.5 μM CpoBD13, replicate 3): 14.3% | PI positivity (%) ([1]; 25 μM CpoBD13, replicate 1): 2.27% | PI positivity (%) ([1]; 25 μM CpoBD13, replicate 2): 13.1% | PI positivity (%) ([1]; 25 μM CpoBD13, replicate 3): 14.3% | PI positivity (%) ([1]; 50 μM CpoBD13, replicate 1): 2.77% | PI positivity (%) ([1]; 50 μM CpoBD13, replicate 2): 20.5% | PI positivity (%) ([1]; 50 μM CpoBD13, replicate 3): 18.6% | PI positivity (%) ([1]; 100 μM CpoBD13, replicate 1): 15.77% | PI positivity (%) ([1]; 100 μM CpoBD13, replicate 2): 6.8% | PI positivity (%) ([1]; 100 μM CpoBD13, replicate 3): 23% | membrane permeabilisation (PI uptake) ([1]; serum-free media, 30 min, 37°C): unable to effectively permeabilise | effect on cell viability [2]: did not affect the viability | IC50 ([3]; 24 h, Replicate 1, unit not in table, µM, read-out: IC50): 4.19 µM | IC50 ([3]; 24 h, Replicate 2, unit not in table, µM, read-out: IC50): 4.11 µM | IC50 ([3]; 24 h, Replicate 3, unit not in table, µM, read-out: IC50): 4.1 µM | IC50 ([3]; 24 h, mean, n = 3, assessed range 0–10 µM, read-out: IC50 of fungal growth inhibition): 4.1 µM | IC50 ([3]; Replicate 1, read-out: IC50): 5.39 µM | IC50 ([3]; Replicate 2, read-out: IC50): 5.34 µM | IC50 ([3]; Replicate 3, read-out: IC50): 5.46 µM | membrane permeabilising activity ([4]; pH 5.5): highly effective | membrane permeabilising activity ([4]; pH 6.5): significantly reduced | membrane permeabilising activity ([4]; pH 7.5): most dramatic loss of activity
